In patent publication US20020192796A1 one finds flaA mRNA, RNA slot blot hybridization, HP1122-inactivated strain against wild type and fold decrease in flaA mRNA, RNA slot blot hybridization, HP1122-overexpressing N6 strain against wild type data, which are given here for one substance.

The assay deals with HP1032 protein, sigma28 factor of RNA polymerase (FliA) of Helicobacter pylori (Helicobacter pylori strain 26695). Briefly: cell-based or functional assay.

For the substance “HP1122 protein, anti-sigma28 factor (FlgM) of Helicobacter pylori”, the flaA mRNA, RNA slot blot hybridization, HP1122-inactivated strain against wild type worked out at 2.5 fold and the fold decrease in flaA mRNA, RNA slot blot hybridization, HP1122-overexpressing N6 strain against wild type worked out at 2 fold.
